# Laboratory results taken from patent US6946258B2, “Rapid, immunochemical process for measuring thiopurine methyltransferase” (Biologix Diagnostics, LLC, priority 2002, dated 2005).
# Residue numbers refer to the chain shown, from its start.
# T1: human TPMT (Homo sapiens, UniProt P51580)
# T1 sequence (P51580 1-245): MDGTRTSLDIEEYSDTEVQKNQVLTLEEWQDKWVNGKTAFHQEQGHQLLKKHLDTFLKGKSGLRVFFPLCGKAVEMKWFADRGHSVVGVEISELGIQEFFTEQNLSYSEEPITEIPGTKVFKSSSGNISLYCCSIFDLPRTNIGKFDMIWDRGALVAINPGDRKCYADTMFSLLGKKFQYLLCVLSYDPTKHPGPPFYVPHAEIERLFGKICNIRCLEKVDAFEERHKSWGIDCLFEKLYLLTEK
# T2: hTPMT enzyme (Homo sapiens, UniProt P51580, Y240C)
# T2 construct: DNA fragment; first 13 codons of LacZ (vector-encoded leader of pGEM-3Zf(+)) (N); made in house; host or cells: E. coli JM109 (pTPMT)
# T2 sequence (P51580 1-245 Y240C): T1 sequence (P51580 1-245) with Y240C
# B1: hTPMT enzyme: Recombinant human thiopurine methyltransferase expressed in E.coli JM109 (pTPMT), partially purified (protein, UniProt P51580 1-245, looked up)
# Thiopurine S-methyltransferase: T1 sequence (P51580 1-245)
# modifications: recombinant, E. coli
# notes: Recombinant human thiopurine methyltransferase expressed in E.coli JM109 (pTPMT), partially purified
# Columns and labels:
# [1] = target: T1, human TPMT; settings: Deininger et al., 1994, Table 1; cited from earlier work
# [2] = target: T2, hTPMT enzyme; test: ELISA immunoassay for TPMT using purified anti-6-MMP IgG; type: biochemical; settings: TPMT + 100 μM SAM, 37° C., 30 minutes
# Excerpt: In order to determine whether TPMT enzyme could methylate 6-MP bound to BSA in reaction wells of a plastic ELISA plate, and if the anti-6-MMP antibody could detect the methylated 6-MMP reaction product, the following assay format was developed: [drawing 3] Schematic Representation of ELISA Assay for TPMT. Substrate BSA-6-mercaptopurine conjugate is coated onto the wells of plastic ELISA plates. In the presence of S-Adenosylmethionine (SAM), TPMT catalyses S-methylation of 6-MP to 6-methylmercaptopurine (6-MMP). Rabbit anti-6-MMP IgG binds to the covalently bound 6-MMP reaction product; and Protein A-Horseradish peroxidase (HRP) conjugate then binds to the rabbit IgG. Blue color develops in the presence of the HRP substrate, Tetramethylbenzidine. After acidification, the color changes to yellow; and the optical density at 450 nm is directly proportional to the amount of 6-MMP produced by enzyme-catalyzed TPMT methylation.
# The wells of ‘Immulon B’ ELISA strips were coated with various concentrations of BSA-6MP conjugate and blocked as described above. After blocking solution was removed, the wells received 100 μl of Methylation Reaction Mix consisting of 1 mM Potassium Phosphate, 30 mM Tris-HCl, pH 8.0, lmM EDTA, 100 μM SAM and 1-4 μl of TPMT enzyme (˜6 units/μl). As a control, the wells received 100 μl of same reaction mix except no Mtase enzyme.
# The wells were incubated at 37° C. for 30 minutes and were developed as described before. Absorbance was read on an Opsys MR ELISA plate reader (Dynex) at 450 nm. In this ELISA assay format, TPMT enzyme activity is detected as the amount of 6-MMP formed in situ: substrate 6-mercaptopurine is covalently bound to BSA which coats the wells of the plastic ELISA plate. Since anti-6-MMP IgG binds specifically to the methylated reaction product, 6-MMP, it is possible to measure TPMT activity using horseradish peroxidase (HRP) labeled Protein A (or HRP-conjugated goat anti-rabbit IgG). […]
# [3] = target: T2, hTPMT enzyme; test: Temperature optimum of recombinant TPMT; type: biochemical
# Method: Thawed cells (˜15g) were sonicated in (20 mM Tris-Cl, pH 7.5, 1 mM EDTA, 50 mM KC1, 10 mM β-mercaptoethanol) and centrifuged (8000 g for 15 minutes). The supernatant was loaded onto a Q-Sepharose column (Pharmacia, Piscataway, N.J.). […] After a storage of 2 and 5 months at −20° C., no change in TPMT enzyme activity was observed.
# [4] = Storage stability of recombinant TPMT; type: physicochemical; settings: storage of 2 and 5 months at −20° C.
# Method: The optimal reaction temperature for the hTPMT enzyme is 37° C. […] The relatively high activity of TPMT at ambient temperature facilitates immunoassays using anti-6-MMP antibody. After a storage of 2 and 5 months at −20° C., no change in TPMT enzyme activity was observed.
molecule,measurement,setting,value
OC[C@H]1O[C@@H](n2cnc3c(S)ncnc32)[C@H](O)[C@@H]1O [6-mercaptopurine riboside],substrate quality for human TPMT,[1],relatively good substrate
BSA:6-MP: 6-MP (TPMT substrate) linked to BSA by periodate oxidation chemistry; coated onto ELISA wells,Absorbance at 450 nm,[2]; wells coated with BSA:6-MP 10 μg/ml,2.228
same,Absorbance at 450 nm,[2]; wells coated with BSA:6-MP 100 μg/ml,2.440
same,Absorbance at 450 nm,[2]; wells coated with BSA:6-MP 1 mg/ml,2.561
B1,optimal reaction temperature,[3],37 °C
same,enzyme activity at 23° C. relative to the optimum,[3]; 23° C.,nearly as active
same,change in TPMT enzyme activity after storage,[4],no change
